Legend:
[1] = molecular target: S-locked, soluble SARS-CoV-2 spike ectodomain with the disulfide 413C-987C that locks the RBD in the closed conformation, without heterologous trimerization domain (SARS-CoV-2 (Wuhan-Hu-1)) (UniProt P0DTC2); experiment: SEC-MALS
[2] = molecular target: HexaPro, soluble SARS-CoV-2 spike ectodomain carrying a foldon domain (SARS-CoV-2 (Wuhan-Hu-1) | not stated) (UniProt P0DTC2); experiment: SEC-MALS
[3] = molecular target: HexaPro, soluble SARS-CoV-2 spike ectodomain carrying a foldon domain (SARS-CoV-2 (Wuhan-Hu-1) | not stated) (UniProt P0DTC2); experiment: SEC
[4] = molecular target: S-3P, soluble SARS-CoV-2 spike ectodomain with C-terminal foldon trimerization domain (SARS-CoV-2 (Wuhan-Hu-1) | not stated) (UniProt P0DTC2); experiment: SEC-MALS
[5] = molecular target: S-3P, soluble SARS-CoV-2 spike ectodomain with C-terminal foldon trimerization domain (SARS-CoV-2 (Wuhan-Hu-1) | not stated) (UniProt P0DTC2); experiment: SEC
[6] = molecular target: HexaPro spike without foldon (SARS-CoV-2 (Wuhan-Hu-1)) (UniProt P0DTC2); experiment: SEC

S-locked, soluble SARS-CoV-2 spike ectodomain with the disulfide 413C-987C that locks the RBD in the closed conformation, without heterologous trimerization domain (from UniProt P0DTC2 14-1208)
stoichiometry N [1]: 3

HexaPro, soluble SARS-CoV-2 spike ectodomain carrying a foldon domain (from UniProt P0DTC2 14-1208)
stoichiometry N [2]: 3 | stoichiometry N [3]: 3

S-3P, soluble SARS-CoV-2 spike ectodomain with C-terminal foldon trimerization domain (from UniProt P0DTC2 14-1208)
stoichiometry N [4]: 3 | stoichiometry N [5]: 3

HexaPro spike without foldon (from UniProt P0DTC2 14-1208)
stoichiometry N [6]: 3
